Measurements reported in the supplement of paper PMC9112550, “Optimization of the antimicrobial peptide Bac7 by deep mutational scanning” (BMC Biology, 2022).

Test system: Escherichia coli TOP10
Assay: shrunken log2 fold change of peptide-encoding DNA abundance (4.5 h post-induction vs induction); higher = less antimicrobial activity (less host growth inhibition)
Settings: time post-induction: 4.5 h; library: site-saturation at positions 5, 18, 19, 20
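Also: peptides expressed intracellularly from a pBAD plasmid library in pooled LB shake-flask culture, induced with 0.3% L-arabinose, DNA abundance read by NGS, three biological replicates, DESeq2 with apeglm shrinkage.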

Row | Sequence | shrunken log2 fold change
1 | RRIRVRPPRLPRPRPRPPGPPRP | 0.533
2 | RRIRVRPPRLPRPRPRPPGTPRP | 0.273
3 | RRIRVRPPRLPRPRPRPPHFPRP | 0.696
4 | RRIRVRPPRLPRPRPRPPHLPRP | -0.0283
5 | RRIRVRPPRLPRPRPRPPHTPRP | 0.0516
6 | RRIRVRPPRLPRPRPRPPIMPRP | -0.486
7 | RRIRVRPPRLPRPRPRPPKIPRP | -0.05
8 | RRIRVRPPRLPRPRPRPPKQPRP | 0.0106
9 | RRIRVRPPRLPRPRPRPPLAPRP | 0.425
10 | RRIRVRPPRLPRPRPRPPMVPRP | 0.0314
11 | RRIRVRPPRLPRPRPRPPNGPRP | 0.0958
12 | RRIRVRPPRLPRPRPRPPNKPRP | -0.0216
13 | RRIRVRPPRLPRPRPRPPQCPRP | -0.143
14 | RRIRVRPPRLPRPRPRPPQHPRP | 0.186
15 | RRIRVRPPRLPRPRPRPPQPPRP | 1.38
16 | RRIRVRPPRLPRPRPRPPRLPRP | 0.294
17 | RRIRVRPPRLPRPRPRPPRSPRP | 0.37
18 | RRIRVRPPRLPRPRPRPPRTPRP | 0.331
19 | RRIRVRPPRLPRPRPRPPRYPRP | 0.317
20 | RRIRVRPPRLPRPRPRPPTHPRP | 0.117
21 | RRIRVRPPRLPRPRPRPPVCPRP | 0.191
22 | RRIRVRPPRLPRPRPRPPVDPRP | 0.0819
23 | RRIRVRPPRLPRPRPRPPVYPRP | -0.329
24 | RRIRVRPPRLPRPRPRPPWLPRP | 0.365
25 | RRIRVRPPRLPRPRPRPPWWPRP | 0.665

Row | Sequence | shrunken log2 fold change
26 | RRIRVRPPRLPRPRPRPPYCPRP | -0.0177
27 | RRIRVRPPRLPRPRPRPPYNPRP | -0.1
28 | RRIRVRPPRLPRPRPRPPYQPRP | -0.3
29 | RRIRVRPPRLPRPRPRPQATPRP | 0.271
30 | RRIRVRPPRLPRPRPRPQCSPRP | -0.18
31 | RRIRVRPPRLPRPRPRPQEAPRP | -0.0448
32 | RRIRVRPPRLPRPRPRPQERPRP | -0.119
33 | RRIRVRPPRLPRPRPRPQGHPRP | -0.177
34 | RRIRVRPPRLPRPRPRPQGIPRP | 0.0752
35 | RRIRVRPPRLPRPRPRPQIGPRP | -0.273
36 | RRIRVRPPRLPRPRPRPQIVPRP | -0.136
37 | RRIRVRPPRLPRPRPRPQKRPRP | -0.0953
38 | RRIRVRPPRLPRPRPRPQNPPRP | -0.396
39 | RRIRVRPPRLPRPRPRPQPIPRP | -0.375
40 | RRIRVRPPRLPRPRPRPQPMPRP | 2.31
41 | RRIRVRPPRLPRPRPRPQPQPRP | 0.302
42 | RRIRVRPPRLPRPRPRPQQMPRP | 0.0393
43 | RRIRVRPPRLPRPRPRPQQNPRP | -0.112
44 | RRIRVRPPRLPRPRPRPQQSPRP | -0.0738
45 | RRIRVRPPRLPRPRPRPQSDPRP | -0.0819
46 | RRIRVRPPRLPRPRPRPQSFPRP | -0.111
47 | RRIRVRPPRLPRPRPRPQVIPRP | -0.00246
48 | RRIRVRPPRLPRPRPRPQVTPRP | -0.425
49 | RRIRVRPPRLPRPRPRPQYCPRP | -0.095
50 | RRIRVRPPRLPRPRPRPRACPRP | 0.274

Row | Sequence | shrunken log2 fold change
51 | RRIRVRPPRLPRPRPRPRCNPRP | -0.135
52 | RRIRVRPPRLPRPRPRPRCQPRP | 0.0744
53 | RRIRVRPPRLPRPRPRPRDIPRP | -0.0591
54 | RRIRVRPPRLPRPRPRPRDPPRP | 0.617
55 | RRIRVRPPRLPRPRPRPREDPRP | 0.489
56 | RRIRVRPPRLPRPRPRPREHPRP | 0.322
57 | RRIRVRPPRLPRPRPRPRHQPRP | -0.138
58 | RRIRVRPPRLPRPRPRPRICPRP | -0.229
59 | RRIRVRPPRLPRPRPRPRKRPRP | 0.572
60 | RRIRVRPPRLPRPRPRPRKVPRP | -0.0445
61 | RRIRVRPPRLPRPRPRPRKYPRP | -0.0723
62 | RRIRVRPPRLPRPRPRPRMFPRP | -0.0394
63 | RRIRVRPPRLPRPRPRPRMNPRP | -0.0411
64 | RRIRVRPPRLPRPRPRPRMPPRP | 0.278
65 | RRIRVRPPRLPRPRPRPRNCPRP | -0.129
66 | RRIRVRPPRLPRPRPRPRNVPRP | -0.192
67 | RRIRVRPPRLPRPRPRPRPHPRP | 0.351
68 | RRIRVRPPRLPRPRPRPRPLPRP | 0.378
69 | RRIRVRPPRLPRPRPRPRPRPRP | 0.62
70 | RRIRVRPPRLPRPRPRPRRAPRP | 0.751
71 | RRIRVRPPRLPRPRPRPRRGPRP | 0.579
72 | RRIRVRPPRLPRPRPRPRTQPRP | 0.0785
73 | RRIRVRPPRLPRPRPRPSATPRP | 0.43
74 | RRIRVRPPRLPRPRPRPSCNPRP | -0.509
75 | RRIRVRPPRLPRPRPRPSDPPRP | -0.179

Row | Sequence | shrunken log2 fold change
76 | RRIRVRPPRLPRPRPRPSDRPRP | 0.194
77 | RRIRVRPPRLPRPRPRPSEVPRP | -0.138
78 | RRIRVRPPRLPRPRPRPSGPPRP | -0.119
79 | RRIRVRPPRLPRPRPRPSHDPRP | -0.159
80 | RRIRVRPPRLPRPRPRPSKLPRP | -0.797
81 | RRIRVRPPRLPRPRPRPSKRPRP | -0.229
82 | RRIRVRPPRLPRPRPRPSMIPRP | -0.375
83 | RRIRVRPPRLPRPRPRPSNGPRP | -0.219
84 | RRIRVRPPRLPRPRPRPSQWPRP | 0.0963
85 | RRIRVRPPRLPRPRPRPSRCPRP | -0.101
86 | RRIRVRPPRLPRPRPRPSTKPRP | -0.213
87 | RRIRVRPPRLPRPRPRPSTPPRP | -0.0614
88 | RRIRVRPPRLPRPRPRPSTYPRP | -0.288
89 | RRIRVRPPRLPRPRPRPSVHPRP | -0.0573
90 | RRIRVRPPRLPRPRPRPSVYPRP | -0.25
91 | RRIRVRPPRLPRPRPRPSWLPRP | 0.23
92 | RRIRVRPPRLPRPRPRPSWRPRP | -0.0696
93 | RRIRVRPPRLPRPRPRPSYLPRP | 0.753
94 | RRIRVRPPRLPRPRPRPSYRPRP | -0.775
95 | RRIRVRPPRLPRPRPRPTANPRP | 0.221
96 | RRIRVRPPRLPRPRPRPTAYPRP | -0.094
97 | RRIRVRPPRLPRPRPRPTCPPRP | 0.243
98 | RRIRVRPPRLPRPRPRPTDCPRP | -0.184
99 | RRIRVRPPRLPRPRPRPTEAPRP | 0.0175
100 | RRIRVRPPRLPRPRPRPTEDPRP | -0.113

Row | Sequence | shrunken log2 fold change
101 | RRIRVRPPRLPRPRPRPTEWPRP | 0.322
102 | RRIRVRPPRLPRPRPRPTFMPRP | -0.0669
103 | RRIRVRPPRLPRPRPRPTGKPRP | -0.116
104 | RRIRVRPPRLPRPRPRPTGSPRP | -0.133
105 | RRIRVRPPRLPRPRPRPTGYPRP | -0.239
106 | RRIRVRPPRLPRPRPRPTICPRP | -0.604
107 | RRIRVRPPRLPRPRPRPTIDPRP | -0.0691
108 | RRIRVRPPRLPRPRPRPTKLPRP | -0.121
109 | RRIRVRPPRLPRPRPRPTLEPRP | 0.413
110 | RRIRVRPPRLPRPRPRPTLIPRP | 0.0816
111 | RRIRVRPPRLPRPRPRPTMFPRP | -0.158
112 | RRIRVRPPRLPRPRPRPTNHPRP | -0.384
113 | RRIRVRPPRLPRPRPRPTPMPRP | 0.259
114 | RRIRVRPPRLPRPRPRPTPQPRP | 0.279
115 | RRIRVRPPRLPRPRPRPTQFPRP | 0.203
116 | RRIRVRPPRLPRPRPRPTQGPRP | 0.291
117 | RRIRVRPPRLPRPRPRPTQIPRP | 0.149
118 | RRIRVRPPRLPRPRPRPTQQPRP | 0.346
119 | RRIRVRPPRLPRPRPRPTSEPRP | 0.066
120 | RRIRVRPPRLPRPRPRPTSVPRP | -0.0603
121 | RRIRVRPPRLPRPRPRPTTDPRP | -0.0625
122 | RRIRVRPPRLPRPRPRPTWYPRP | -0.0971
123 | RRIRVRPPRLPRPRPRPTYCPRP | -0.327
124 | RRIRVRPPRLPRPRPRPVEIPRP | -0.0612
125 | RRIRVRPPRLPRPRPRPVEQPRP | -0.0734

Row | Sequence | shrunken log2 fold change
126 | RRIRVRPPRLPRPRPRPVFHPRP | -0.213
127 | RRIRVRPPRLPRPRPRPVFIPRP | -0.144
128 | RRIRVRPPRLPRPRPRPVGEPRP | 0.305
129 | RRIRVRPPRLPRPRPRPVGTPRP | -0.0358
130 | RRIRVRPPRLPRPRPRPVGYPRP | -0.0725
131 | RRIRVRPPRLPRPRPRPVHIPRP | -0.174
132 | RRIRVRPPRLPRPRPRPVKHPRP | -0.3
133 | RRIRVRPPRLPRPRPRPVKIPRP | -0.29
134 | RRIRVRPPRLPRPRPRPVLCPRP | 0.0228
135 | RRIRVRPPRLPRPRPRPVLGPRP | 0.299
136 | RRIRVRPPRLPRPRPRPVLVPRP | -0.311
137 | RRIRVRPPRLPRPRPRPVMRPRP | 0.269
138 | RRIRVRPPRLPRPRPRPVPFPRP | -0.115
139 | RRIRVRPPRLPRPRPRPVQCPRP | -0.0156
140 | RRIRVRPPRLPRPRPRPVQYPRP | -0.0224
141 | RRIRVRPPRLPRPRPRPVSTPRP | -0.145
142 | RRIRVRPPRLPRPRPRPVVTPRP | 0.0368
143 | RRIRVRPPRLPRPRPRPVWQPRP | 0.148
144 | RRIRVRPPRLPRPRPRPVYIPRP | -0.363
145 | RRIRVRPPRLPRPRPRPVYPPRP | -0.389
146 | RRIRVRPPRLPRPRPRPWASPRP | 0.0586
147 | RRIRVRPPRLPRPRPRPWCFPRP | -0.0951
148 | RRIRVRPPRLPRPRPRPWCMPRP | -0.468
149 | RRIRVRPPRLPRPRPRPWDLPRP | 0.146
150 | RRIRVRPPRLPRPRPRPWECPRP | -0.00141
